Positions of bridges follow the written chain, without caps; N, C: chain ends. No end group written: not given here.

Experimental findings from patent publication US20110171292A1 (RESEARCH FOUNDATION OF STATE UNIVERSITY OF NEW YORK, published 2011) are described below.

The target of the assay is thioredoxin reductase. Description: cell-based or functional assay.

GTCVNVGCIPRQIKIWFQNRRMKWKK (disulfide 3-8 (inferred)) [peptide YJB02]: the “IC50 of thioredoxin reductase activity (DTNB reduction, absorbance at 405-414 nM)” value was determined as 36 nM.
